Reference: patent US20140147453
Where a chain is given by its changes, count along the chain named.

Experiments:
[1] = target: T1, MFK25 peptide (mdhFas-1-GPLGIAG-QERGDSLA) (UniProt P82198)
T1 sequence: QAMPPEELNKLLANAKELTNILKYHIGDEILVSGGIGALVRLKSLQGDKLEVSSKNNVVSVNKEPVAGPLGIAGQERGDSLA

[2] = target: T2, MFK23 peptide (mdhFas-1-GPLGVRG-QERGDSLA) (UniProt P82198)
T2 sequence: T1 sequence with I72V, A73R

[3] = target: T3, MFK24 peptide (mdhFas-1-GPQGIAG-QERGDSLA) (UniProt P82198)
T3 sequence: T1 sequence with L70Q

[4] = target: T4, MFK24 peptide (mdhFas-1-GPQGIAG-QERGDSLA), P82198
T4 chain: T1 sequence with L70Q

**Q.** MMP-3 (matrix metalloproteinase 3) was tested. Which “enzymatic digestion test (immunoblot with anti-Histidine or anti-Bigh3)” value (from here on “enzymatic digestion test”) [1] did it give?
**A.** MFK25 was concentration-dependently cleaved through treatment with MMP-1, MMP-2 and MMP-3, and especially, well cleaved by MMP-1 and MMP-3

**Q.** MMP-2 (matrix metalloproteinase 2) was tested. Which “enzymatic digestion test” value [2] did it give?
**A.** MFK23 was concentration-dependently cleaved through treatment with MMP-2

**Q.** What about the “enzymatic digestion test” value [1] of the same molecule?
**A.** MFK25 was concentration-dependently cleaved through treatment with MMP-1, MMP-2 and MMP-3

**Q.** With cathepsin D as the molecule, how does the “enzymatic digestion test” value [2] read?
**A.** MFK23 was not cleaved through treatment with cathepsin K, L or D

**Q.** What about the “enzymatic digestion test” value [1] of the same molecule?
**A.** MFK25 was not cleaved through treatment with cathepsin K, L or D

**Q.** MMP-1 (matrix metalloproteinase 1) was tested. Which “enzymatic digestion test” value [3] did it give?
**A.** MFK24 was concentration-dependently cleaved through treatment with MMP-1

**Q.** What about the “enzymatic digestion test” value [1] of the same molecule?
**A.** MFK25 was concentration-dependently cleaved through treatment with MMP-1, MMP-2 and MMP-3, and especially, well cleaved by MMP-1 and MMP-3

**Q.** For cathepsin L, which “enzymatic digestion test” value [2] is on record?
**A.** MFK23 was not cleaved through treatment with cathepsin K, L or D

**Q.** What about the “enzymatic digestion test” value [1] of the same molecule?
**A.** MFK25 was not cleaved through treatment with cathepsin K, L or D

B1: MMP-1 secreted from a human Synovial membrane cell (human FLS stimulated with IL-1β) (protein)
chain: FPATLETQEQDVDLVQKYLEKYYNLKNDGRQVEKRRNSGPVVEKLKQMQEFFGLKVTGKPDAETLKVMKQPRCGVPDVAQFVLTEGNPRWEQTHLTYRIENYTPDLPRADVDHAIEKAFQLWSNVTPLTFTKVSEGQADIMISFVRGDHRDNSPFDGPGGNLAHAFQPGPGIGGDAHFDEDERWTNNFREYNLHRVAAHELGHSLGLSHSTDIGALMYPSYTFSGDVQLAQDDIDGIQAIYGRSQNPVQPIGPQTPKACDSKLTFDAITTIRGEVMFFKDRFYMRTNPFYPEVELNFISVFWPQLPNGLEAAYEFADRDEVRFFKGNKYWAVQGQNVLHGYPKDIYSSFGFPRTVKHIDAALSEENTGKTYFFVANKYWRYDEYKRSMDPGYPKMIAHDFPGIGHKVDAVFMKDGFFYFFHGTRQYKFDPKTKRILTLQKANSWFNCRKN
**Q.** For B1, which “culture analysis of enzymatic digestion (human FLS + IL-1β, 1 uM peptide, 3 and 6 hours; immunoblot anti-histidine versus anti-βig-h3)” value [4] is on record?
**A.** in the use of the anti-histidine antibody, MFK24 was measured in a smaller amount than that in the use of the anti-βig-h3 antibody

B2: cathepsin K (enzyme, UniProt P43235 115-329, looked up, species assumed)
Cathepsin K: APDSVDYRKKGYVTPVKNQGQCGSCWAFSSVGALEGQLKKKTGKLLNLSPQNLVDCVSENDGCGGGYMTNAFQYVQKNRGIDSEDAYPYVGQEESCMYNPTGKAAKCRGYREIPEGNEKALKRAVARVGPVSVAIDASLTSFQFYSKGVYYDESCNSDNLNHAVLAVGYGIQKGNKHWIIKNSWGENWGNKGYILMARNKNNACGIANLASFPKM
**Q.** B2 was tested. Which “enzymatic digestion test” value [2] did it give?
**A.** MFK23 was not cleaved through treatment with cathepsin K, L or D

**Q.** What about the “enzymatic digestion test” value [1] of the same molecule?
**A.** MFK25 was not cleaved through treatment with cathepsin K, L or D
